Reference: publication PMC3431625

What was measured:
[1] = target: Bovine collagen type IV (bovine) (UniProt Q7SIB2); experiment: ELISA
[2] = target: Pepsinized collagen type II (UniProt P02459); experiment: ELISA
Pepsinized collagen type II, sequence (P02459 26-1487): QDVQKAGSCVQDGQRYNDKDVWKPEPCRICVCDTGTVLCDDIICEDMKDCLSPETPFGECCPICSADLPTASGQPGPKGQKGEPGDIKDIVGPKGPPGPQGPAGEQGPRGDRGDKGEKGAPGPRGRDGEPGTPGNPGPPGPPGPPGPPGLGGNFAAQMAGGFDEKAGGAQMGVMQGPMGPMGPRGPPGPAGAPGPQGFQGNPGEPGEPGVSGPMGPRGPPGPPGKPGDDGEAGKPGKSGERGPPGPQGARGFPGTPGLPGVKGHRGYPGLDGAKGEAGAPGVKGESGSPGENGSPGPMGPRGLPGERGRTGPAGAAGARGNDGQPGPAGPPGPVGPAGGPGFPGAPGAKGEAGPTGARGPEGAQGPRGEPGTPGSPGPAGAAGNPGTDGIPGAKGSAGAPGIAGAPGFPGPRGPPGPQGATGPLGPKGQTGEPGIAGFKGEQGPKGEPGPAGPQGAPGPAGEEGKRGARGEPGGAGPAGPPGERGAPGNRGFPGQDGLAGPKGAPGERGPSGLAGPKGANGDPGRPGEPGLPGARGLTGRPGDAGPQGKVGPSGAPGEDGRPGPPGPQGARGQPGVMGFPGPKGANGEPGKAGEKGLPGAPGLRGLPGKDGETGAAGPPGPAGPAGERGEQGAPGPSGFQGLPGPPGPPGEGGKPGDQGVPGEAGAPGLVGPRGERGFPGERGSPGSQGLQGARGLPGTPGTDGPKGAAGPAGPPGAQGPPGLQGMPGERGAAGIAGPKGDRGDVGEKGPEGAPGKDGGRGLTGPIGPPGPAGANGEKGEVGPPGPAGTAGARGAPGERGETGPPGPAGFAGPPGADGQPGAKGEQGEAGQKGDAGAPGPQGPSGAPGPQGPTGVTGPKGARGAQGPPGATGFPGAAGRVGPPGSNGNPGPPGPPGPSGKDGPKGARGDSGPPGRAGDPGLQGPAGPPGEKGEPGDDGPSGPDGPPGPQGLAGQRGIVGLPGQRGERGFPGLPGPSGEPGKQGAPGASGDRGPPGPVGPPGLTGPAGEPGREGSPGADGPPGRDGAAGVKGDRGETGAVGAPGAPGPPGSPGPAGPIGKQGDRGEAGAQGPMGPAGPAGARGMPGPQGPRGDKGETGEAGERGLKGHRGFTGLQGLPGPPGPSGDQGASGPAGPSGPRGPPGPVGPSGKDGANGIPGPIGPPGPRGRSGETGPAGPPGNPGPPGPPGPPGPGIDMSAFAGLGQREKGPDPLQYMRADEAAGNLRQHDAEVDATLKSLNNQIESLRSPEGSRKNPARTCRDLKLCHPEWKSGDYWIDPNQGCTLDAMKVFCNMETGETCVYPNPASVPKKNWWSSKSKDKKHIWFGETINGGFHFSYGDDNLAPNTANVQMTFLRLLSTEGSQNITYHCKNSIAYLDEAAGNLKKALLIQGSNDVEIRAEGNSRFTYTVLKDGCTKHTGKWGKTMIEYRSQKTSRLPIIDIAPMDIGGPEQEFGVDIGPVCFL

Bovine collagen type IV (bovine), sequence (Q7SIB2 28-1669, chain 1 of 2): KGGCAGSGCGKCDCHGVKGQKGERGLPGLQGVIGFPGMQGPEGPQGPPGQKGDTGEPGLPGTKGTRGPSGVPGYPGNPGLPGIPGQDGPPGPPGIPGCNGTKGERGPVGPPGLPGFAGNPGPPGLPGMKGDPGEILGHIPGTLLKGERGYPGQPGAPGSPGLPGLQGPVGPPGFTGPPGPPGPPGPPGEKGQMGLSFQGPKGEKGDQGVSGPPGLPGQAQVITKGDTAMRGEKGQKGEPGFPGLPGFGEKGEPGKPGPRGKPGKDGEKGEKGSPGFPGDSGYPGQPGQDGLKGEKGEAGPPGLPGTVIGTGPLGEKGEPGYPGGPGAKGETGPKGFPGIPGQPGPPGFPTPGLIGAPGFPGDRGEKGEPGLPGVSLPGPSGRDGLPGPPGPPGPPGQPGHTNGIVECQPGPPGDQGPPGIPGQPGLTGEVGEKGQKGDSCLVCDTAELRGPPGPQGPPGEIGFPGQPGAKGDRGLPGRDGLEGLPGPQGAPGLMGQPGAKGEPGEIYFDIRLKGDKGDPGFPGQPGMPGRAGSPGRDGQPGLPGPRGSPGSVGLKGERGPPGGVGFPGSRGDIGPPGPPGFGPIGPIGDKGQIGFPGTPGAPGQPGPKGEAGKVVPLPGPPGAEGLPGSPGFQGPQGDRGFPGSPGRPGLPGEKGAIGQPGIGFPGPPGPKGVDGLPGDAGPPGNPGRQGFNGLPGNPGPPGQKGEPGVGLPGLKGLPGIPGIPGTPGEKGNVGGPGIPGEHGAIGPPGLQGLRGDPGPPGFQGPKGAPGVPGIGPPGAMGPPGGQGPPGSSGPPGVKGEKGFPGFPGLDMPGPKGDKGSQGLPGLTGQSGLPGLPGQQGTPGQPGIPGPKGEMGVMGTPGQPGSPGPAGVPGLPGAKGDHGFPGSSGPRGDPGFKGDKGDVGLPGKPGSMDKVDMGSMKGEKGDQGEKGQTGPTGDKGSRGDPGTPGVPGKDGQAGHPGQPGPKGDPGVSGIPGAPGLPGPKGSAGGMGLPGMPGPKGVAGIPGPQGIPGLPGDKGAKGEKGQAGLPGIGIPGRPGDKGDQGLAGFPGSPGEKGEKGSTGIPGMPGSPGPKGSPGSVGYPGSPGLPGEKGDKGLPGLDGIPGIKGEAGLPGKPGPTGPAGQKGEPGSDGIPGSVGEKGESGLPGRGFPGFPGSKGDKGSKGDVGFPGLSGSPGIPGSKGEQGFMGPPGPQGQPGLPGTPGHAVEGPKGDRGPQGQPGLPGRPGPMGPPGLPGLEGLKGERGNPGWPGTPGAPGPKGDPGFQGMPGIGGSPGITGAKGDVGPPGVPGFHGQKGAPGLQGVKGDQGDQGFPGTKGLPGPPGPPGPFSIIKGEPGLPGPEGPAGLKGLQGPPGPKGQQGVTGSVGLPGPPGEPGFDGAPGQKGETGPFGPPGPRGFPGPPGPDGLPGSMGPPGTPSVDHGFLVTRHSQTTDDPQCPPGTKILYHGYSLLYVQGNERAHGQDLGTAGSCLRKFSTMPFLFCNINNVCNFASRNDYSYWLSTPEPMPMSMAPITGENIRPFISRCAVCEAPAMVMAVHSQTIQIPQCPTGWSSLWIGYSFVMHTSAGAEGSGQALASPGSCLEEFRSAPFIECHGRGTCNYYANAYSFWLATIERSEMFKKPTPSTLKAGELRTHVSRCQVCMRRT
Bovine collagen type IV (bovine), sequence (Q7SIB3 whole entry, chain 2 of 2, further chain): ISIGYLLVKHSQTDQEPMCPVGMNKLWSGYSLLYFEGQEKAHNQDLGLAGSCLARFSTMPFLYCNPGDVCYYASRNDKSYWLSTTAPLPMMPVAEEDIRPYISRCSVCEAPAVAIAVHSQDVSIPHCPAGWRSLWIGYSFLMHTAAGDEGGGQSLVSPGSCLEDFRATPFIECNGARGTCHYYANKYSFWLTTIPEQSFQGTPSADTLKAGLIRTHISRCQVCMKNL

B1: Recombinant bovine opticin (natural protein)
chain: ASLSEEREGDPYAILHLGDYVLSLDNYDEVIDPSNYDELIDYGDQLPQVKGTSLASLTRTRFTQSTEAARTLPSNPTTARPPTLGLLAAPANHGLPTCLICVCLGSSVYCDDADLENIPPLPQTTAYLYARFNRISHIRAGDFKGLTKLKRIDLSGNSISSIDDKALRLLPALRDLILPENKLVALPTLPTSIEVLDVRMNRLQSSGIQPEAFRALEKLQFLYLADNLLDAIPPSLPLSLRSLHLQNNMIETMQRDAFCDAEEHRHTRRPLEDIRLDGNPINLSLFPSAYFCLPRLPTGRFV
- Kd [1]: 0.5 µM
- Kd [2]: 0.04 µM
